The values below come from patent US20250277048A1 (Regeneron, published 2025).

For assay [1], the target named is T1, human CD40 (hCD40) expressed on cells (human, UniProt P25942 21-277).
T1 construct: whole, on cells; one entry for transfected and endogenous human CD40; the cell line is named under assay or readout; also called HEK293/D9/hCD40; Ramos 2G6.4C10
Description: flow cytometry, HEK293/D9/hCD40 cells. The method, then: (§1) Cells were washed with 2% FBS (w/v) in 1×PBS (flow cytometry staining buffer) by centrifugation with benchtop Centrifuge 5810R (Eppendorf®, Hamburg, Germany). Cells were incubated for 30 minutes at 4° C. with serial dilutions of following antibodies ranging from 1.7 pM to 100 nM in flow cytometry staining buffer (1) anti-CD40×CD40 bispecific antibodies, or (2) parental anti-CD40 antibodies (bivalent antibodies comprising 2 fragment antigen-binding [Fab] arms identical to one of the two anti-CD40 Fab of bispecific anti-CD40×CD40 antibodies), or (3) anti-CD40×Irrelevant antibodies (bivalent antibodies that incorporate one Fab arm identical to one of anti-CD40 Fab of anti-CD40×CD40 antibodies and another Fab arm specific to an irrelevant antigen, i.e. birch pollen main allergen Bet v1), or (4) human IgG4 isotype control antibodies with Fc mutation. After washing, cell bound antibodies were detected with 2.5 μg/ml Allophycocyanin (APC)-conjugated goat anti-human IgG antibody specific for the Fcγ fragment (Jackson Immunoresearch, West Grove, PA) for 30 minutes at 4° C. Cells were washed and subsequently fixed with 50% solution of Cytofix™ Fixation Buffer (BD, Franklin Lakes, NJ) in flow cytometry staining buffer for 20 minutes at room temperature. Cells were washed and resuspended in flow cytometry staining buffer and stored at 4° C. for downstream flow cytometry analysis.
(§2) Acquisition of fluorescence signals were recorded on the ZE5 Cell Analyzer (Bio-Rad, Hercules, CA) according to the manufacturer's recommended procedure and flow cytometry data analysis was performed using the open-source R packages flowCore, flowStats, flowDensity, ggCyto, and flowAI. Multiplexed samples were deconvoluted and individual cell populations were identified based on their unique CellTrace™ fluorescence signature. APC Median Fluorescence intensity (MFI) was recorded to indicate the binding intensity of each antibody over a range of concentrations. Antibodies with MFI greater than 1500 at the highest tested concentration (100 nM) were classified as specific binders. In addition, direct binding signals (APC MFI) were analyzed as a function of the antibody concentration and data were fitted with a sigmoidal (four-parameter logistic) dose-response model using GraphPad Prism™ software.

In assay [2] the target is T2, human CD40 extracellular domain expressed with a C-terminal myc-myc-hexahistidine tag (human).
T2 construct: also called hCD40-MMH; hCD40-mmH
T2 sequence (chain, as listed by the source limits assumed): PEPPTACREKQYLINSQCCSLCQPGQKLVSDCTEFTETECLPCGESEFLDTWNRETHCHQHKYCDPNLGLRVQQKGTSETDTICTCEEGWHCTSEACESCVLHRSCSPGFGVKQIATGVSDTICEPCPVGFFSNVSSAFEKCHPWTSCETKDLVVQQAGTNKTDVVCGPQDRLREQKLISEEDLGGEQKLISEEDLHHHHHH
The assay is described as follows: ELISA blocking of 40 nM hCD40-mmH binding to 9His-hCD40L. The source says: An ELISA-based blocking assay was developed to determine the ability of C40×CD40 bispecific antibodies to block the binding of the hCD40 monomer to plate-coated hCD40L. The recombinant human CD40-mmH protein (hCD40-MMH; REGN3094; SEQ ID NO: 53) used in the experiments comprises a portion of the human CD40 extracellular domain (amino acids P20-R193) fused to 2×Myc peptide and 6×histadine (SEQ ID NO: 1110) at the C-terminus of human CD40, and the human CD40L (accession #NM_000074.2) with amino acids E108-L261 of the extracellular domain with 9×His-2×(SGGG)-IGER at the N-terminus (9His-hCD40L) was commercially obtained from Biolegend.
In the blocking assay, 9His-hCD40L was passively absorbed at a concentration of 5 μg/mL in PBS on a 96-well microtiter plate overnight at 4° C. […] In a separate 96-well microtiter plate, a fixed amount of 40 nM hCD40-mmH was pre-mixed with one of the following antibodies, at concentrations ranging from 977 pM to 1 μM in PBS+0.5% BSA: (1) CD40×CD40 bispecific antibodies (REGN16431, REGN16432, REGN16634, and REGN16335); (2) parental CD40 mAbs (bivalent antibodies comprising 2 fragment antigen-binding [Fab] arms identical to one of anti-CD40 Fab of CD40×CD40 antibodies); (3) CD40×Irrelevant antibodies (bivalent antibodies that incorporate one Fab arm identical to one of anti-CD40 Fab of CD40×CD40 antibodies and another Fab arm specific to an irrelevant antigen); and (4) human IgG4 with Fc mutation isotype control antibodies (REGN7540 and REGN4513). The fixed concentration of hCD40-mmH was selected to be near the concentration (EC₅₀ value) that generated 50% of the maximal binding to the plate-adhered 9His-hCD40L. After one-hour incubation, the antibody-antigen complexes were transferred to the microtiter plate coated with 9His-hCD40L. After one hour incubation at room temperature, the plates were washed, and plate-bound hCD40-mmH protein was detected with horseradish peroxidase (HRP) conjugated goat anti-c-Myc antibody. The plates were then developed using TMB substrate solution (BD Biosciences) according to the manufacturer's recommended procedure and the absorbance at 450 nm (OD₄₅₀) was measured on a SpectraMax i3×plate reader.

The target in assay [3] is T1, human CD40 (hCD40) expressed on cells. The assay is described as follows: cell-based or functional assay.
Assay [4] has the same target. Description: flow cytometry, Ramos 2G6.4C10 cells. The method, then: as §1, §2
The target is the same in assay [5]. Description: cell-based or functional assay. The source holds these as a separate data set.
Assay [6] concerns the target T3, Macaca fascicularis CD40 (mfCD40) expressed on HEK293/D9/mfCD40 cells (Macaca fascicularis, UniProt G7PG38 21-278).
T3 construct: whole, on cells; also called monkey CD40
Description: flow cytometry, HEK293/D9/mfCD40 cells. The method, then: as §1, §2

Assay [7] concerns the target T1, human CD40 (hCD40) expressed on cells. The assay is described as follows: cell-based or functional assay. The source holds these as a separate data set.
Assay [8] shares this target. Description: cell-based or functional assay. This is another data set of the same source.
For assay [9] the target is unchanged. The assay is described as follows: cell-based or functional assay. The source holds these as a separate data set.
The target is the same in assay [10]. The assay is described as follows: cell-based or functional assay. The source holds these as a separate data set.

T1 sequence (P25942 21-277): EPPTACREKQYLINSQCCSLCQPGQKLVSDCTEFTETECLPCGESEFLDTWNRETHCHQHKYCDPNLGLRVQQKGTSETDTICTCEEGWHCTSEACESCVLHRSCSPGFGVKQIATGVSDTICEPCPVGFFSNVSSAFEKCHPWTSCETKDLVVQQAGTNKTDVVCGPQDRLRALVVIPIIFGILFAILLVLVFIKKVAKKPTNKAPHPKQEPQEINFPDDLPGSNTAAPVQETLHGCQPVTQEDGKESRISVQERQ

B1: REGN17288 (antibody, V domains shown)
VH: QLQLQESGPGLVRPSETLSLTCSVSGASMNTNNYYWGWIRQPPGKGLEWIGSGYYNGNTYYNPSLKSRVTISVDTSKNQFSLKLNSVTAADTAVYYCARQTPPRIIGSPNIWGQGTMVTVSS
VL: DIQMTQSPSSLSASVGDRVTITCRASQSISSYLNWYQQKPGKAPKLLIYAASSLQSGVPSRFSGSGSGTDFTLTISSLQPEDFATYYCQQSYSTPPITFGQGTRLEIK
notes: also called Parental CD40 (21519)
Take B1: in assay [1], it took 1.2 nM to reach a half-maximal effect (EC50) and the “MFI at 100 nM” value amounted to 20300 MFI. Moreover, in assay [2], the “% Blocking at 1 uM mAb” value is 94% and the IC50 worked out at 52 nM. In addition, in assay [3], the “IC50, 500 pM hCD40L, Ramos NFkB-luc” value is 4.07e-11 M; the “Max % activation, no ligand, Ramos NFkB-luc” value stood at 6%; the “Max % inhibition, 500 pM hCD40L, Ramos NFkB-luc” value (shortened to “Max % inhibition, 500 pM hCD40L”) was found to be 88%. Besides, in [4], the response was half-maximal at 1.3 nM (EC50) and the “MFI at 100 nM” value worked out at 2420 MFI. In assay [5], the “IC50, 10 nM hCD40L, THP-1 NFkB-luc” value was determined as 0.334 nM; the “Max % activation, no ligand, THP-1 NFkB-luc” value was found to be 0%; the “Max % inhibition, 10 nM hCD40L, THP-1 NFkB-luc” value (“Max % inhibition, 10 nM hCD40L” for short) was found to be 98%. Further, in [6], a half-maximal effect (EC50) was put at 9.2 nM and the “MFI at 100 nM” value came to 11800 MFI. In [7], the “IC50, 900 pM hCD40L, Raji NFkB-luc” value came to 4.28e-11 M; the “Max % activation, no ligand, Raji NFkB-luc” value amounted to 14%; the “Max % inhibition, 900 pM hCD40L, Raji NFkB-luc” value (shortened to “Max % inhibition, 900 pM hCD40L”) came out at 90%.

B2: REGN17289 (antibody, V domains shown)
VH: EVQLVESGGGLVQPGGSLRLSCAASGFTFSSYAMNWVRQAPGKGLEWVSIISGTIGKTYYADSVKGRFTISRDNSKNTLYLQMNSLRGEDTAVYYCAKDTERDITGSPFDYWGQGTLVTVSS
VL: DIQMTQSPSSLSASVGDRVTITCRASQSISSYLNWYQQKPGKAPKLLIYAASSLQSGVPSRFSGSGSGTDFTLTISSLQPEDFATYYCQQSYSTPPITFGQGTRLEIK
notes: bivalent mAb with two Fab arms identical to the 30027 arm; also called Parental CD40 (30027)
As to B2, in assay [1], the EC50 was 0.76 nM and the “MFI at 100 nM” value worked out at 20500 MFI. Further, the “% Blocking at 1 uM mAb” value in assay [2] was found to be 10%. Also, in [3], the “EC50 (potentiation), 500 pM hCD40L, Ramos NFkB-luc” value turned out to be 7.51e-12 M; the “Max % activation, no ligand, Ramos NFkB-luc” value amounted to 4%; the “Max % inhibition, 500 pM hCD40L” value was -133%. Moreover, in [4], a half-maximal response (EC50) required 0.47 nM and the “MFI at 100 nM” value worked out at 2660 MFI. Further, in [5], the “EC50 (potentiation), 10 nM hCD40L, THP-1 NFkB-luc” value stood at 0.016 nM; the “Max % activation, no ligand, THP-1 NFkB-luc” value came to 1%; the “Max % inhibition, 10 nM hCD40L” value was -92%. In assay [6], the EC50 came to 1.1 nM and the “MFI at 100 nM” value was determined as 32900 MFI. In addition, in assay [7], the “IC50, 900 pM hCD40L, Raji NFkB-luc” value is 2.72e-11 M; the “Max % activation, no ligand, Raji NFkB-luc” value worked out at 10%; the “Max % inhibition, 900 pM hCD40L” value was found to be 55%.

B3: REGN17544 (antibody, V domains shown)
VH: EVQLVESGGGLVQPGGSLRLSCAASGFTFGSYGMAWVRQAPGKGLEWVSAISGSGDYTNYADSVKRRFTISRDNSKNTLYLQMSSLRAEDTAVYYCAKEKTGTTGYLYSGMDVWGQGTTVTVSS
VL: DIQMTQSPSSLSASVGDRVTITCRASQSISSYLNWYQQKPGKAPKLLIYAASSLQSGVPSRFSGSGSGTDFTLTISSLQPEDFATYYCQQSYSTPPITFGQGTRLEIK
notes: bivalent mAb with two Fab arms identical to the 21520 arm; also called Parental CD40 (21520)
On to B3, for which, in assay [1], the EC50 amounted to 0.98 nM and the “MFI at 100 nM” value stood at 20500 MFI. In assay [2], the “% Blocking at 1 uM mAb” value is 91% and the IC50 came to 71 nM. Moreover, in [3], the “IC50, 500 pM hCD40L, Ramos NFkB-luc” value turned out to be 1.89e-10 M; the “Max % activation, no ligand, Ramos NFkB-luc” value turned out to be 10%; the “Max % inhibition, 500 pM hCD40L” value was determined as 77%. In addition, in assay [4], the EC50 is 0.87 nM and the “MFI at 100 nM” value was found to be 2440 MFI. In addition, in assay [5], the “IC50, 10 nM hCD40L, THP-1 NFkB-luc” value was determined as 1.13 nM; the “Max % activation, no ligand, THP-1 NFkB-luc” value is 4%; the “Max % inhibition, 10 nM hCD40L” value is 96%. Moreover, in assay [6], the midpoint of the response, the EC50, lay at 4.3 nM and the “MFI at 100 nM” value was 23200 MFI. Further, in assay [7], the “IC50, 900 pM hCD40L, Raji NFkB-luc” value came out at 1.35e-10 M; the “Max % activation, no ligand, Raji NFkB-luc” value was determined as 11%; the “Max % inhibition, 900 pM hCD40L” value stood at 81%.

B4: REGN20484 (bispecific antibody, human IgG4 S228P, kappa)
heavy 1: EVQLVESGGGLVQPGGSLRLSCAASGFTFGSYGMAWVRQAPGKGLEWVSAISGSGDYTNYADSVKRRFTISRDNSKNTLYLQMSSLRAEDTAVYYCAKEKTGTTGYLYSGMDVWGQGTTVTVSSASTKGPSVFPLAPCSRSTSESTAALGCLVKDYFPEPVTVSWNSGALTSGVHTFPAVLQSSGLYSLSSVVTVPSSSLGTKTYTCNVDHKPSNTKVDKRVESKYGPPCPPCPAPGGGGPSVFLFPPKPKDTLMISRTPEVTCVVVDVSQEDPEVQFNWYVDGVEVHNAKTKPREEQFNSTYRVVSVLTVLHQDWLNGKEYKCKVSNKGLPSSIEKTISKAKGQPREPQVYTLPPSQEEMTKNQVSLTCLVKGFYPSDIAVEWESNGQPENNYKTTPPVLDSDGSFFLYSRLTVDKSRWQEGNVFSCSVMHEALHNHYTQKSLSLSLGK
heavy 2: EVQLVESGGGLVQPGGSLRLSCAASGFTFSSYAMNWVRQAPGKGLEWVSIISGTIGKTYYADSVKGRFTISRDNSKNTLYLQMNSLRGEDTAVYYCAKDTERDITGSPFDYWGQGTLVTVSSASTKGPSVFPLAPCSRSTSESTAALGCLVKDYFPEPVTVSWNSGALTSGVHTFPAVLQSSGLYSLSSVVTVPSSSLGTKTYTCNVDHKPSNTKVDKRVESKYGPPCPPCPAPGGGGPSVFLFPPKPKDTLMISRTPEVTCVVVDVSQEDPEVQFNWYVDGVEVHNAKTKPREEQFNSTYRVVSVLTVLHQDWLNGKEYKCKVSNKGLPSSIEKTISKAKGQPREPQVYTLPPSQEEMTKNQVSLTCLVKGFYPSDIAVEWESNGQPENNYKTTPPVLDSDGSFFLYSRLTVDKSRWQEGNVFSCSVMHEALHNRFTQKSLSLSPGK
light: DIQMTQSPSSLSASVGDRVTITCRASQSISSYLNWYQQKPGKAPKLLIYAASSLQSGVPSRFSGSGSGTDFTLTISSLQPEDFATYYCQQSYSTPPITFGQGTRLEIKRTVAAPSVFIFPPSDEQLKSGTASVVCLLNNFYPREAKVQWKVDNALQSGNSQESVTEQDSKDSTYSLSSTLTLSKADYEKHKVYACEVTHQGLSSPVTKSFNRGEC
Turning to B4, in [8], the “% max blockade relative to no mAb, IL-10, assay #2 donor 1” value came to 87.1% and the “% max blockade relative to no mAb, IL-10, assay #2 donor 2” value worked out at 90.9%. Further, in [9], the “% max blockade relative to no mAb, IL-6, assay #2 donor 1” value is 89% and the “% max blockade relative to no mAb, IL-6, assay #2 donor 2” value worked out at 88.1%. Further, in [10], the “% max blockade relative to no mAb, TNFa, assay #2 donor 1” value was found to be 61.9% and the “% max blockade relative to no mAb, TNFa, assay #2 donor 2” value was determined as 52.3%.
